{
  "source": "paper doi:10.1101/654111",
  "about": "(bioRxiv, 2019)",
  "proteins": {"B1": {"name": "Gemin5 TPR-like domain (residues 807-1097) (domain or fragment)", "chain": "TPVSSGFEKSKVTINNKVILLKKEPPKEKPETLIKKRKARSLLPLSTSLDHRSKEELHQDCLVLATAKHSRELNEDVSADVEERFHLGLFTDRATLYRMIDIEGKGHLENGHPELFHQLMLWKGDLKGVLQTAAERGELTDNLVAMAPAAGYHVWLWAVEAFAKQLCFQDQYVKAASHLLSIHKVYEAVELLKSNHFYREAIAIAKARLRPEDPVLKDLYLSWGTVLERDGHYAVAAKCYLGATCAYDAAKVLAKKGDAASLRTAAELAAIVGEDELSASLALRCAQELLL"}},
  "molecular_target": "the molecule itself",
  "test": "SEC-MALS",
  "data": [
    {"protein": "B1", "values": [
      {"measurement": "stoichiometry N", "value": 2}
    ]}
  ]
}
